Earlier results as cited in publication PMC11816674.

Key:
IP3R N-terminal region = IP3R N-terminal region (UniProt Q14643)
[1] = biological target: Cav1.4 1579-1605 (Homo sapiens) (UniProt O60840)
UniProt O60840, sequence (O60840 1579-1605): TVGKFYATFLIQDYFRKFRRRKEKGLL

UniProt Q14643, sequence (Q14643 1-604): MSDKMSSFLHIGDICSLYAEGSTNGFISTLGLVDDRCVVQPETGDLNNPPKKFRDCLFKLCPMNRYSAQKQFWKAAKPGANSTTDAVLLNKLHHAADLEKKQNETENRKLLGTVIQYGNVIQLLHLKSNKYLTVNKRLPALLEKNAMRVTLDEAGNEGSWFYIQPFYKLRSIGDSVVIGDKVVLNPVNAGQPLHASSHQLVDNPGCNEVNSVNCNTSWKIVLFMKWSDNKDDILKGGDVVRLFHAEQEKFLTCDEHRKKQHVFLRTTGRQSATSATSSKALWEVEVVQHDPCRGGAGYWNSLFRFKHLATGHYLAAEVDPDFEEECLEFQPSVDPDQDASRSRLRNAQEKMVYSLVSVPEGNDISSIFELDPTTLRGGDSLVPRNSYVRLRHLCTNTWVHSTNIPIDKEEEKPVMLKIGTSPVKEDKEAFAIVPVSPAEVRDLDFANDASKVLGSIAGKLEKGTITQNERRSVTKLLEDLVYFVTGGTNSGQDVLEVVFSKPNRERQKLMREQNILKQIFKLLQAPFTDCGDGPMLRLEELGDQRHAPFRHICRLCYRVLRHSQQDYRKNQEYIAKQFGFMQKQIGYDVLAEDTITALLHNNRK

Substance	Kd (IP3R N-terminal region)	Kd [1]
CaBP1 (from UniProt Q9NZU7)	3 µM	–
CaBP4 (from UniProt P57796)	–	0.8 µM
